Test results as given in the nanobody polyreactivity screen of Harvey et al. (2022).

Assay: yeast display, Sf9 membrane polyspecificity reagent, FACS + sequencing; frameworks hold sequencing errors
How it was run: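 A nanobody's polyreactivity label depends on the gate it was sorted from. Yeast display cells were stained with 10% biotinylated, detergent-solubilized Sf9 membrane reagent for 1 hour at 4 °C, enriched on streptavidin microbeads and sorted by FACS. The low and high (top ~1%) gates were set on anti-HA fluorescence for expression and streptavidin fluorescence for reagent binding.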

Sequence	polyreactivity (PSR sort gate)
QVQLVESGGGLVQAGGSLRLSCAASGSILSKNAMGWYRQAPGKERELVAAITWSGGSTYYADSVKGRFTISRDNAKNTVYLQMNSLKPEDTAVYYCAADLDWSPHFGLPYDYWGQGTQVTVSS	low polyreactivity
QVQLVESGRGLVQAGGSLRISCAASGSTFGYYAMGWYRQAPGKERELVAAITSTGRTKYADSVKGRFTISRDNAKNTVYLQMNSLKPEDTAVYYCAADIWGQGTQVTVSS	high polyreactivity
QVQLVESGGGLVQAGGSLRLSCAASGSIFANNVMGWYRQAPGKEREFVAAISWSGGRTYYADSVTGRFTISRDNAKNTVYLQMNSLKPEDTAVYYCARRPRAWGQGTQVTVSS	high polyreactivity
QVQLVESGGGLVQAGGSLRLSCAASGFILYRNAMGWYRQAPGKERELVAAISRNGGSTYYADSVKGRFTISRDNAKNTFYLQMNSLKPEDTAVYYCAARTVGRKAGFDYWGQGTQVTVSS	high polyreactivity
QVQLVETGGGLVQAGGSLRLSCAASGRTFLDYTMGWYRQAPGKERELVAAIRTSAGSTYYADSVKGRFTISRDNAKNTVYLQMNSLKPEDTAVYYCAKRQRGYFYEYYLYYSWGQGTQVTVSS	low polyreactivity
QVQLVESGGGLVQAGGSLRLSCAASGSIFLYNAMGWYRQAPGKERELVADISWSGGSTYYADSVKGRFTISRDNAKNTVYLQMNSLKPEDTAVYYCNAVVYWFSTSYVYTYDYWGQGTQVTVSS	high polyreactivity
QVQLVESGGGLVQAGGSLRLSCAASGRIFSRNAMGWYRQAPGKERELVAAITSGGSTYYADSVKGRFTISRDNAKNTVYLQMNSLKPEDTAVYYCAKRLTYYSWYHLYDYWGQGTQVTVSS	high polyreactivity
QVQLVESGGGLVQAGGSLRLSCAASGSTFLVYALGWYRQAHGKEREFVAAISWSGGSTFYADSVKGRFTISRDNAKNTVYLQMNSLKPEDTAVYYCAARQAGYSGRKLYYWGQGTQVTVSS	low polyreactivity
QVQLVESGGGLVQAGGSLRLSCAASGSTFGWYAMGWYRQAPGKERELVAAITSVGSTYYADYVKGRFTISRDNAKNTVYLQMNSLKPEDTAVYYCANRFGYGWAWFGYWGQGTQVTVSS	low polyreactivity
QVQLVESGRGLVQAGGSLRLSCAASGFTFYYYANGWYRQAPGKERELVAAISIGGSTYYADSVKGRFTISRDNAKNTVYLQMNCLKPEDTAVYYCNVVFTYWPPGTARYDYWGQGTQVTVSS	high polyreactivity
QVRLVESGGGLVQAGGSLRLSCAASGRIFGYYTMGWYRQAPGKERELVADNNRDGSTYADSVKGRFTLSRDNAKNTVYLQMNSLKPEDTAVYYCNAQYDSAYGLGFFIGYFSQYDYWGQGTQVTVSS	low polyreactivity
QVHLVESGGGLDQARGSHRLSCAASGYTIPTYAMGWYRHAPGKERELVAAINWSGSRTYYADSVKGRFTISRDNAKNTVYLQMNSVKPEDTAFYYCAAYAYRVGPIRRHDYWGQGTQVTVSS	high polyreactivity
QVQLQESGGGQVQAGGSLRLSCAASGYISTHYFMGWYRQAPGKDREFVAGISNGSITNYADSVKGRFTISRDNARNTVYLQMNSLKPEDTEVYYGAAYEWTYVRFGYWGQGTQVTVSG	high polyreactivity
QVHLVESGGGLVQAGGSLRLSCAASGSTFQSNAMGWYRQAPGKERELVATITQSGATTYYADSVKGRFTISRDNAKNTVYLQMNSLNPEDTAVYYCNVDTYQKRWFWLDLDGGYWGQGTQVTVSS	low polyreactivity
QVQLVESGGCLVQAGGSLRLSCAASGRIFPGYAMGWYRQAPGKEREFVAAITASGGTTYYADSVKGRFTISRDNAKNTVYLQMNSLKPEDTAVYYCAKYRYTVAGYNYWGQGTQVTVSS	high polyreactivity
QVQLVESGGGLVQAGGSLRVSCAASGSIFRFNVMGWYRQAPGKERELVAAITRGDSTNYADSVKGRFTISRDNAKNTVYLQMNSLKPEDTAVYYCAAGYYYYLRDHDYWGQGTQVTVSS	low polyreactivity
QVQLVESGGGLVQAGGSLRLSCSASGFIFLDYAMGLYRQAPGKERELVAAISSRGARTYYADSVKGRFTISRDNAKNTVYLQMNSLKPEDTAVYYCAARGPHDRYGYWGQGNQVTVSS	high polyreactivity
QVQLVESGGGLVQAGGSLRLSCAASGSTFAKNAMGWYRQAPGKERELVAAITYSGGSTYYADSVKGRFTISRDNAKNTVYLQMNSLKPEDTAVYFCASDVWWSDYRYDYWGQGTQVTVSS	low polyreactivity
QVQLVESGGGLVQAGGSLRLSCAASGSIFIRYVMGWYRQAPGKERELVAAITGSGSRTYYADSVKGRFTISRDNAKNTVYLQMNSLKPEDTAVYYCAADWTKSRRYYWGQGTQVTVSS	high polyreactivity
QDQLVESWGGLVQAGCSLRLTCAASGSTFWWYAMGWNRQAPGKQREFDAPINWSGSRTYYADSVKGRFTISRDNAKNTVYLQINSLNPEDTAVYYCAAVGRWGVTGSHHDAYDYWGQGTQVTVSS	high polyreactivity
QVQLVESGGGLVQAGGSLRLSCAASGSTFYRYTMGWYRQAPGKERELVAAITGSGDSTYYADSVKGRFTISRDNAKNTVYLQMNSLKPEDTAVYYCAAANSFYYIATGEYDYWGQGTQVNVSS	high polyreactivity
QVQLVESGGGLVQAGGSLRLSCAASGSTIVPNTMGWYRQAPGKERELVAGITSGGSTYYADSVKGRFTISRDNAKNTVYLQMNSLKPEDTAVYYCAADDGSTANEKLIHEYNYWGQGTQVTVSS	low polyreactivity

Sequence	polyreactivity (PSR sort gate)
QVQLVDSGGGLVQAGGSLRLSCAASGITFGYYAMGWYRQAPGKERELVAAISFTGASTYYADSVKGRFTISRDNAKNTVYLQMYSLKPEDTAVYYCAADPYVPYHDFLSGFDYWGQGTQVTVSS	low polyreactivity
QVQLVESGGGLVQAGGSLRLSCAASGRIFPLYAMGWYRQAPGKERELVADISVTGTSTYYADSVKGRFTISRDNAKNTVYLQMNSLKPEDTAVYYCAADLWAYGPLWRWSRADYDYWGQGTQVTVSS	low polyreactivity
QVQLVESGGGLVQAGGSLRLSCAASGRTFFYYTMGWYRQAPGKERELVAAITGSGTRTYYADSVKGRFTISRDNAKNTVYYQMNSLKPEDTAVYYCAAGYSDFSGQQVYYWGQGTQVTVSS	high polyreactivity
QVQLVESGGGLDQAGGSLRLSCAASGRTFYYNAMGWYRQAPGKERELVADINWSGVRTYYADSVKGRFTISRDNAKNTVYLQMNSLKPEDTAVYYCAARYRTLTKYYWGQGTQVTVSS	low polyreactivity
QVQLVESGGGLVQAGGSLRLSCAASGSTFKYYAMGWYRQAPGKERELVARISSGGRTYYADSVKGRFTISRDNAKNTVYLQMNSLKPEDTAVYYCNAQGYTTYRGDYWGQGTQVTVSS	high polyreactivity
QVQLVESGGGLVQAGGSLRLSCAASGFSFRYYAMGWYRQAPGKERELVAAISSSGTRTYYADSVKGRFTISRDNATTTVYLQMNSLKPEDTAVYYCNAGSPTSTVDYWGQGTQVTVSS	high polyreactivity
QVHLVESGGGLVQAGGSLRLSCAASGRTFRQYAMGWNIQAPGKERELVATISSGGSTYYADSVKGRFTISRDNAKNTVYLQMNSLKPEDTSVYYCAAASGTKRLYRGTRGDYWGQGTQVTVSS	low polyreactivity
QVQLVESGGGFVQAGGSLRLSCAASGRTFQFYAMGWYRQAPGKERELVAAITYSGDSTYYADSVKGRFTISRDNAKNTVYLQMNSLKPEDTAVYYCAAGVWFYWYEYDYWGQGTQVTVSS	high polyreactivity
QVQLVESGGGLVQAGGSLRLSCAASGITFSWYVMGWSRQAPGKERDLVATITNRGGSTYYADSVKGRFTISRDNAKNTVYLQMNSLKPEDTAVYYCAARKKGSRVGYDYWGQGTQVTVSS	high polyreactivity
QVQLVESGGGLVQAGGSLRLSCAASGITFAYYVMGWYRQAPGKERELVAAINGSGGSTYYADSVKGRFTISRDTAKNTVYLQMNSLKPEDTAVYYCAAEQYVYRRYPEPDWYAYNYWGQGTQVTVSS	high polyreactivity
QVQLVESGGGLVQAGGSLRLSCAASGSTLTRNAMGLYRQAPGTERELVATITATGGSTYYADSVKGRFTISRDNAKYTVYLQMNSLKTEDTAVYYCAAAYPTYRHYYWGQGTQVTVSS	low polyreactivity
QVQLVESGGGLVQAGGRLRLSCAASGRTFRYYGMGWYRQAPWKERELVAAISWSGGSTYYADSVKGRFTISRDNAKNTVYLQMNSLTPEDTAVYYCNVDFHWQRFHHKSAAYDYWGQGTQVTVSS	high polyreactivity
QVQLVESGGGLVQAGGSLRLSCAASGNTFIPNAMGWYRQAPGKERELVAAIRASGGSTYYADSVKGRFTISRDNAKNTVYLLMNSLKPEDTAVYYCNDDIWYKTYDYWGQGTQVTVSS	low polyreactivity
QVQLVDSGGGLVQAGGSLRLSCAASGSTFKIYAMGWYRQAPGKERELVARITGRGGSTYYADSVKGRFTISRDNAKNTVYLQMNSLKPEDTAVYYCAAAKRYYSEMYWGQGTQVTVSS	high polyreactivity
QVELVESAAGLVQAGGSLRLSCAASALTFSRYTMGWYSQAPGKDRELVAAISRSGASTYYADSVKGRFTISRDNAKNTVYLQTNSLTPEDTGVYYCAKTSTSYGSLPKVTPYPLDYWGQGTQVTVSS	high polyreactivity
QVQLVESGGGLVQAGGSLRLSCAASGFTFYTYAMGWYRQAPGKERELVAAITGSGGRTYYADSVKGRFTISRDNAKNTVYLQMNSLKPEDTAVYYCAALYVYRPRTPYGYWGQGTQVTVSS	high polyreactivity
QLQLVESGGGLVQAGGSLRLSCAASGRTFQIYAMGWYRQAPVNERELVARITGVGSTNYADSVKGRFTISRDNAKNTVYLQMNSLKPEDTAVYYCNKRDGNWEYDYWGQGTQVTVSS	low polyreactivity
QVQLVESGGGLVQAGGSLRLSCAASGRTQSRYTMGWYRQAPGKERELVAAISTSGSTYYADSVKGRFTISRDNAKNTVYLQMNSLKPEDTAVYYCNAVRRYLQYATGYDYWGQGTQVTVSS	high polyreactivity
HVQLVESGGGLVQAGGSLRLSCAASGSIFESNAMGWYRQAPGKERELVAAYADSVKGRFTISRDNAKNTVYVQMNSLKPEETAVYYCAARIGTGVLPGRGANSHMDYWGQGTQVTVSS	low polyreactivity
QLQHVESGGCLDQAGGSLRLSCAASGGIIPYRGWYRQAPGKQRELVASITSSGGSTYYADSVKGRFTISRDNAKNTVYLQMNSLKPEDTAVFYCAADPDFYKSVQYDYWGQGTQVTVSS	low polyreactivity
QVQLVESGGGLVQAGRSLRLSCAASGINFAGYAKGWYRQAPGKERELVAAISRGGSTYYADSVKGRFTISRDNAKNTVYFQMNSLIPEDTAVYYCNTYYQQGYFTYTGWNYNYWGQGTQVTVST	high polyreactivity
